Data on 4 molecules can be found in patent US20220340682A1 (Sanofi, published 2022).

The target in experiment [1] is T1, cCEACAM5, M. fascicularis CEACAM5 ECD (35-688) (Macaca fascicularis).
T1 construct: ECD followed by a 24 amino acid extension containing a His-Tag; also called cynomolgus CEACAM5; monkey CEACAM5
T1 chain: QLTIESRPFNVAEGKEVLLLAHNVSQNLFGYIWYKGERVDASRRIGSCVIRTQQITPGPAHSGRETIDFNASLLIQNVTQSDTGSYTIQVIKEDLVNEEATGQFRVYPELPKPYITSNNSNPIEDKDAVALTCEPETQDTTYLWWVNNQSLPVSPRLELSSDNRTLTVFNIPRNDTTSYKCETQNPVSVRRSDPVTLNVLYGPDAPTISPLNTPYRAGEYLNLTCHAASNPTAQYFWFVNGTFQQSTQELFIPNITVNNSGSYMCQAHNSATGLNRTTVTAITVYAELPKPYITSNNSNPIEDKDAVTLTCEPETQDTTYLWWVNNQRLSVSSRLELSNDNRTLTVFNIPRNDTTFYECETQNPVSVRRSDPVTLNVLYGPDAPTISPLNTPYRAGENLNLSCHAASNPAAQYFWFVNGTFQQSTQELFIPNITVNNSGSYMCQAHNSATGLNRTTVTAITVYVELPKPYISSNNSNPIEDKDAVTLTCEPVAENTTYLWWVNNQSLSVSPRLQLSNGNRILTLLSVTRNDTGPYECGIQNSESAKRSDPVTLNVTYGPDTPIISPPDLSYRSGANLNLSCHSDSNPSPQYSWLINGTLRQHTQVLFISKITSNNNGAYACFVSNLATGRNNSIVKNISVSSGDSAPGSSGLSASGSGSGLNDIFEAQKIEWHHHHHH
Kind of experiment: SPR screening (Biacore T200) of example 6.4. The protocol: (§1) To evaluate impact of these modifications, IgGs binding was determined by measuring SPR signals with a Biacore T200 unit (GE Healthcare). Anti-human Fc antibodies were coupled to a Series S CM5 chip via amine coupling kit to reach a level of 10,000 response units (RU). Approximately 300 to 600 RU of each variant were captured by injecting supernatants at 1 μg/mL with a contact time of 60 seconds and a flow rate of 10 μL/min. All experiments were performed at 25° C. with HBS-EP+(10 mM Hepes, 150 mM NaCl, 3 mM EDTA, 0.05% surfactant P20) as the running buffer. In a screening mode, the human CEACAM5 cynomolgus CEACAM5/human A3B3 domain was injected at 50 nM over the captured IgG variants at a flow rate of 30 μLimin for 1 minute. […]
(§2) For each experiment, response data were processed using a reference surface, thereby allowing correction for bulk refractive index changes and any non-specific binding. […] First, the binding activity is estimated by the proportion of the theoretical maximum signal measured (percentage of Rmax, see FIG. 16). Second, the percentage of remaining signal is calculated using dissociation report points (the first one 10 seconds after the end of the injection and the second one 50 seconds after the end of injection) and reflects the stability of binding (see FIG. 17).
(In general: Surface plasmon resonance follows binding to a sensor surface in real time, without labels.)

In experiment [2] the target is T2, hCEACAM5, human CEACAM5 ECD (35-685) (human, UniProt P06731 35-685).
T2 construct: produced in HEK293; also called human CEACAM5 protein; human CEACAM5 extracellular domain
T2 sequence: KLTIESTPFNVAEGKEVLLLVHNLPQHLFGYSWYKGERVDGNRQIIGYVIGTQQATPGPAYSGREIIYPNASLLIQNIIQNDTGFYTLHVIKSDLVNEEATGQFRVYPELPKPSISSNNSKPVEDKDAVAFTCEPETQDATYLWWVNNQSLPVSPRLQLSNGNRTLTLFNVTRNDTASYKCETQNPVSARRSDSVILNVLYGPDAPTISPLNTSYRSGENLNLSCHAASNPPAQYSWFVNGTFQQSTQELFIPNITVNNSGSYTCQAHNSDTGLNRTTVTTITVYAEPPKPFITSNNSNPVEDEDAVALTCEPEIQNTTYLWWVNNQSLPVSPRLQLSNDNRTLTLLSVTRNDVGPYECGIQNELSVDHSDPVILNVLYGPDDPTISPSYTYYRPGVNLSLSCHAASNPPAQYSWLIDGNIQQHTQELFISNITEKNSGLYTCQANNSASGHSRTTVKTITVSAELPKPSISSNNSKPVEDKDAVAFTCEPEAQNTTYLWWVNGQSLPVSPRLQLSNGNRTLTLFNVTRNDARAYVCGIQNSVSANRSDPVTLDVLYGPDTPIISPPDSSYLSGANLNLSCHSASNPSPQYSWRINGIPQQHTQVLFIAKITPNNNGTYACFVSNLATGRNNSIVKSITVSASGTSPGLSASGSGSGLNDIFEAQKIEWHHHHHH
Kind of experiment: SPR screening (Biacore T200) of example 6.4. As to the method: as §1, §2

Experiment [3] deals with T1, cCEACAM5, M. fascicularis CEACAM5 ECD …. Kind of experiment: SPR (Biacore T200), IgG captured by anti-human Fc, antigen injected at 50 nM; % remaining signal after 50 seconds. As to the method: (§3) To evaluate impact of these modifications, IgGs binding was determined by measuring SPR signals with a Biacore T200 unit (GE Healthcare). Anti-human Fc antibodies were coupled to a Series S CM5 chip via amine coupling kit to reach a level of 10,000 response units (RU). Approximately 300 to 600 RU of each variant were captured by injecting supernatants at 1 μg/mL with a contact time of 60 seconds and a flow rate of 10 μL/min. All experiments were performed at 25° C. with HBS-EP+(10 mM Hepes, 150 mM NaCl, 3 mM EDTA, 0.05% surfactant P20) as the running buffer. In a screening mode, the human CEACAM5 cynomolgus CEACAM5/human A3B3 domain was injected at 50 nM over the captured IgG variants at a flow rate of 30 μLimin for 1 minute. A dissociation phase of 60 seconds was held before the surface was regenerated with 1 pulse injection of 3 M MgCl₂ at a flow rate of 10 μLiminute and a contact time of 30 seconds.
(§4) For each experiment, response data were processed using a reference surface, thereby allowing correction for bulk refractive index changes and any non-specific binding. Data were double referenced using response from blank injections. According to the screening method described in an application note from GE Healthcare (Application note 28-9777-72 AA), two parameters were considered to rank the variants with respect to binding characteristics. First, the binding activity is estimated by the proportion of the theoretical maximum signal measured (percentage of Rmax, see FIG. 16). Second, the percentage of remaining signal is calculated using dissociation report points (the first one 10 seconds after the end of the injection and the second one 50 seconds after the end of injection) and reflects the stability of binding (see FIG. 17).

Experiment [4] addresses T2, hCEACAM5, human CEACAM5 ECD (35-685). The description is as above. The protocol: as §3, §4

B1: MAb2_VLg5VHg2 (antibody, human IgG1, V domains shown)
VH: EVQLVESGGGLVQPGGSLRLSCAASGFVFSSYDMSWVRQAPGKGLEWVSYISSGGGITYYADSVKGRFTISRDNSKNTLYLQMNSLRAEDTAVYYCAAHYFGSSGPFAYWGQGTLVTVSS
VL: DIQMTQSPSSLSASVGDRVTITCRASENIFSYLAWYQQKPGKAPKLLIYNTRTLQSGVPSRFSGSGSGTDFTLTISSLQPEDFATYYCQHHYGTPFTFGQGTKLEIK
notes: Fused to human IgG1 and human Ckappa constant domains; tested as IgG in HEK293 supernatants diluted to 1 ug/ml; Parent of the alanine-scanning variants; also called MAb2_VLg5Hg2; humanized MAb2 grafted on IGHV3-23 / IGKV1D-39
B1: the binding result in experiment [1] and in experiment [2] was “binds” in each case.

B2: LC_S31A (antibody, V domains shown)
VH: EVQLVESGGGLVQPGGSLRLSCAASGFVFSSYDMSWVRQAPGKGLEWVSYISSGGGITYYADSVKGRFTISRDNSKNTLYLQMNSLRAEDTAVYYCAAHYFGSSGPFAYWGQGTLVTVSS
VL: DIQMTQSPSSLSASVGDRVTITCRASENIFAYLAWYQQKPGKAPKLLIYNTRTLQSGVPSRFSGSGSGTDFTLTISSLQPEDFATYYCQHHYGTPFTFGQGTKLEIK
notes: variant of MAb2_VLg5VHg2
In the case of B2, the binding result in experiment [3] and in experiment [4] was “binds” in each case.

B3: HC_S53A (antibody, V domains shown)
VH: EVQLVESGGGLVQPGGSLRLSCAASGFVFSSYDMSWVRQAPGKGLEWVSYISAGGGITYYADSVKGRFTISRDNSKNTLYLQMNSLRAEDTAVYYCAAHYFGSSGPFAYWGQGTLVTVSS
VL: DIQMTQSPSSLSASVGDRVTITCRASENIFSYLAWYQQKPGKAPKLLIYNTRTLQSGVPSRFSGSGSGTDFTLTISSLQPEDFATYYCQHHYGTPFTFGQGTKLEIK
notes: variant of MAb2_VLg5VHg2
On to B3, for which the binding result in experiment [3] and in experiment [4] was “binds” throughout.

B4: LC_T51A (antibody, V domains shown)
VH: EVQLVESGGGLVQPGGSLRLSCAASGFVFSSYDMSWVRQAPGKGLEWVSYISSGGGITYYADSVKGRFTISRDNSKNTLYLQMNSLRAEDTAVYYCAAHYFGSSGPFAYWGQGTLVTVSS
VL: DIQMTQSPSSLSASVGDRVTITCRASENIFSYLAWYQQKPGKAPKLLIYNARTLQSGVPSRFSGSGSGTDFTLTISSLQPEDFATYYCQHHYGTPFTFGQGTKLEIK
notes: variant of MAb2_VLg5VHg2
In the case of B4, the binding result in experiment [3] and in experiment [4] was “binds” each time.
